A word on the Kd: it is the constant that tells how readily two partners part at equilibrium. Low values mean tighter binding, high ones weaker binding. Usually stoichiometry N stands for the number of molecules, sites or subunits per partner or assembly.

We go through five substances from paper PMC5748213.

The target of one assay is human VPS29 (human) (UniProt Q9UBQ0). Nature of the assay: ITC. (ITC needs no label: the signal is the heat of the interaction.)
Assay [1] concerns the target retromer (VPS26–VPS29–VPS35) (UniProt O75436). The assay is described as follows: ITC.
Assay [2] shares this target. The assay is described as follows: SEC-MALS. In general terms: Size exclusion chromatography separates by hydrodynamic size, large species first.

Regarding “RidL (Lpg2311/Ceg28), full length (from UniProt Q5ZT54 1-1167) (natural protein)”, the dissociation constant Kd with human VPS29 (human) was found to be 181 nM. Further, in assay [1], the Kd stood at 151 nM. In assay [2], this substance came in with a stoichiometry N (RidL per retromer (printed as 1:1)) of 1 and a stoichiometry N (RidL per retromer (printed as 2:2)) of 1. Substance RidL_(30–236) (domain or fragment) returned a Kd in assay [1] of 164 nM. Same read-out and setting: the result for “TBC1D5TBC (TBC GAP domain of human TBC1D5, residues 1–419) (from UniProt Q92609 1-419) (domain or fragment)” reads 450 nM. The same measure, in the same setting: the result for “VARPc (VARP residues 396–746, the two cysteine-rich domains) (from UniProt Q96NW4 396-746) (domain or fragment)” reads 3000 nM.

In assay [2], “retromer (VPS26–VPS29–VPS35) (from UniProt O75436;Q9UBQ0;Q96QK1) (complex)” returned a stoichiometry N of 2.
